Source: paper PMC6145688

Molecular target: Recombinant active autotaxin-β (ATXβ), Q13822
Experiment: cell adhesion assay; plates coated with recombinant ATXβ; cells in HEPES-buffered Tyrode solution with 2 mM Mn2+, rested 1 h at 37° C, seeded 1 h, attached cells counted; cells preincubated 1 h with blocking antibodies (10 µg/mL) or peptides (50 µg/mL)
Details: remark: other sources report otherwise

B1: Integrin αvβ3, P06756 31-1048; P05106 27-788 (receptor)
chain 1: FNLDVDSPAEYSGPEGSYFGFAVDFFVPSASSRMFLLVGAPKANTTQPGIVEGGQVLKCDWSSTRRCQPIEFDATGNRDYAKDDPLEFKSHQWFGASVRSKQDKILACAPLYHWRTEMKQEREPVGTCFLQDGTKTVEYAPCRSQDIDADGQGFCQGGFSIDFTKADRVLLGGPGSFYWQGQLISDQVAEIVSKYDPNVYSIKYNNQLATRTAQAIFDDSYLGYSVAVGDFNGDGIDDFVSGVPRAARTLGMVYIYDGKNMSSLYNFTGEQMAAYFGFSVAATDINGDDYADVFIGAPLFMDRGSDGKLQEVGQVSVSLQRASGDFQTTKLNGFEVFARFGSAIAPLGDLDQDGFNDIAIAAPYGGEDKKGIVYIFNGRSTGLNAVPSQILEGQWAARSMPPSFGYSMKGATDIDKNGYPDLIVGAFGVDRAILYRARPVITVNAGLEVYPSILNQDNKTCSLPGTALKVSCFNVRFCLKADGKGVLPRKLNFQVELLLDKLKQKGAIRRALFLYSRSPSHSKNMTISRGGLMQCEELIAYLRDESEFRDKLTPITIFMEYRLDYRTAADTTGLQPILNQFTPANISRQAHILLDCGEDNVCKPKLEVSVDSDQKKIYIGDDNPLTLIVKAQNQGEGAYEAELIVSIPLQADFIGVVRNNEALARLSCAFKTENQTRQVVCDLGNPMKAGTQLLAGLRFSVHQQSEMDTSVKFDLQIQSSNLFDKVSPVVSHKVDLAVLAAVEIRGVSSPDHVFLPIPNWEHKENPETEEDVGPVVQHIYELRNNGPSSFSKAMLHLQWPYKYNNNTLLYILHYDIDGPMNCTSDMEINPLRIKISSLQTTEKNDTVAGQGERDHLITKRDLALSEGDIHTLGCGVAQCLKIVCQVGRLDRGKSAILYVKSLLWTETFMNKENQNHSYSLKSSASFNVIEFPYKNLPIEDITNSTLVTTNVTWGIQPAPMPVPVWVIILAVLAGLLLLAVLVFVMYRMGFFKRVRPPQEEQEREQLQPHENGEGNSET
chain 2: GPNICTTRGVSSCQQCLAVSPMCAWCSDEALPLGSPRCDLKENLLKDNCAPESIEFPVSEARVLEDRPLSDKGSGDSSQVTQVSPQRIALRLRPDDSKNFSIQVRQVEDYPVDIYYLMDLSYSMKDDLWSIQNLGTKLATQMRKLTSNLRIGFGAFVDKPVSPYMYISPPEALENPCYDMKTTCLPMFGYKHVLTLTDQVTRFNEEVKKQSVSRNRDAPEGGFDAIMQATVCDEKIGWRNDASHLLVFTTDAKTHIALDGRLAGIVQPNDGQCHVGSDNHYSASTTMDYPSLGLMTEKLSQKNINLIFAVTENVVNLYQNYSELIPGTTVGVLSMDSSNVLQLIVDAYGKIRSKVELEVRDLPEELSLSFNATCLNNEVIPGLKSCMGLKIGDTVSFSIEAKVRGCPQEKEKSFTIKPVGFKDSLIVQVTFDCDCACQAQAEPNSHRCNNGNGTFECGVCRCGPGWLGSQCECSEEDYRPSQQDECSPREGQPVCSQRGECLCGQCVCHSSDFGKITGKYCECDDFSCVRYKGEMCSGHGQCSCGDCLCDSDWTGYYCNCTTRTDTCMSSNGLLCSGRGKCECGSCVCIQPGSYGDTCEKCPTCPDACTFKKECVECKKFDRGALHDENTCNRYCRDEIESVKELKDTGKDAVNCTYKNEDDCVVRFQYYEDSSGKSILYVVEEPECPKGPDILVVLLSVMGAILLIGLAALLIWKLLITIHDRKEFAKFEEERARAKWDTANNPLYKEATSTFTNITYRGT
- percent inhibition of DU145 cell adhesion on ATXβ by LM609 (anti-αvβ3): 60%
- percent inhibition of KHOS cell adhesion on ATXβ by LM609 (anti-αvβ3): 15%
